Experimental data published in the supplement of paper PMC6379048.

Columns and labels:
Assay in all cases: EC50 of free RNA motif oligo competing protein binding to immobilised probe
DIS3L2 = target: T1, DIS3L2 (UniProt Q8IYB7)
T1 sequence: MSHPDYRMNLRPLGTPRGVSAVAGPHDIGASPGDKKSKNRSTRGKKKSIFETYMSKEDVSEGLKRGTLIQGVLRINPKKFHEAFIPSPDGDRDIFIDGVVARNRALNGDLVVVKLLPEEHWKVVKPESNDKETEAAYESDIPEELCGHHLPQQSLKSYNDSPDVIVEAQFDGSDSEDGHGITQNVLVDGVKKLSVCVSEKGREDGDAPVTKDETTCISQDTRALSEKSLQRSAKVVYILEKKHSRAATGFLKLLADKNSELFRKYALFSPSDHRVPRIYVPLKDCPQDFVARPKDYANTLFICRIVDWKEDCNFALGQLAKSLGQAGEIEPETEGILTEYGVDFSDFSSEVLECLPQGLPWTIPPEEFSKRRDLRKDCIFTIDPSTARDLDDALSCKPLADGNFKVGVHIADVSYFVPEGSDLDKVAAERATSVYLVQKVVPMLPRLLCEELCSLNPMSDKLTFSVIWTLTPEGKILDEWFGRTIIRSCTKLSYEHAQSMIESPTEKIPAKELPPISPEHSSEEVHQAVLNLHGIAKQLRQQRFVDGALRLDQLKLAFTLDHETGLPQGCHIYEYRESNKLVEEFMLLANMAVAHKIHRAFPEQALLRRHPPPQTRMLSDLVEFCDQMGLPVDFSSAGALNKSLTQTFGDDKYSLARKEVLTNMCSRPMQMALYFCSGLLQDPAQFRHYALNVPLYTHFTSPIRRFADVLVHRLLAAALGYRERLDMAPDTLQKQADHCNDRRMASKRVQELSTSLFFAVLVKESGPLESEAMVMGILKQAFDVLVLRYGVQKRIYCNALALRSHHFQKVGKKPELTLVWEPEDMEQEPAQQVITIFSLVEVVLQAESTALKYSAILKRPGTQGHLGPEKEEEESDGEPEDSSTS
Procedure: (§1)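 Competition-binding assay: HEK293-FT cell lysate (2.5 mg protein) pre-incubated 1 h at 4°C with free motif-containing RNA oligos (0 to 30 µM, 12 doses), then pulled down with the same 5'-amino-C6 RNA oligos immobilised on NHS-Sepharose beads (30 min, 4°C). Bound proteins were quantified by label-free LC-MS/MS and normalised to the water control. EC50 came from a four-parameter log-logistic fit; Kd = EC50 x depletion factor. Random/reversed control probes are dropped.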

LIN28B = target: T2, LIN28B (UniProt Q6ZN17)
T2 sequence: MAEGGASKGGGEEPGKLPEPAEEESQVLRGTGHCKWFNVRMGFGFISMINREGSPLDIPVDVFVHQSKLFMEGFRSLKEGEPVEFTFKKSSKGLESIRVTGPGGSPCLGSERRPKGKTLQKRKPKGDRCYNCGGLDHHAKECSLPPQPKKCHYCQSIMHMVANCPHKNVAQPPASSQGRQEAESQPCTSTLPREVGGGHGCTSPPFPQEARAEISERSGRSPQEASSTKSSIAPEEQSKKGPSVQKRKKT
Procedure: as §1

SKIV2L2 = target: T3, SKIV2L2 (UniProt P42285)
T3 sequence: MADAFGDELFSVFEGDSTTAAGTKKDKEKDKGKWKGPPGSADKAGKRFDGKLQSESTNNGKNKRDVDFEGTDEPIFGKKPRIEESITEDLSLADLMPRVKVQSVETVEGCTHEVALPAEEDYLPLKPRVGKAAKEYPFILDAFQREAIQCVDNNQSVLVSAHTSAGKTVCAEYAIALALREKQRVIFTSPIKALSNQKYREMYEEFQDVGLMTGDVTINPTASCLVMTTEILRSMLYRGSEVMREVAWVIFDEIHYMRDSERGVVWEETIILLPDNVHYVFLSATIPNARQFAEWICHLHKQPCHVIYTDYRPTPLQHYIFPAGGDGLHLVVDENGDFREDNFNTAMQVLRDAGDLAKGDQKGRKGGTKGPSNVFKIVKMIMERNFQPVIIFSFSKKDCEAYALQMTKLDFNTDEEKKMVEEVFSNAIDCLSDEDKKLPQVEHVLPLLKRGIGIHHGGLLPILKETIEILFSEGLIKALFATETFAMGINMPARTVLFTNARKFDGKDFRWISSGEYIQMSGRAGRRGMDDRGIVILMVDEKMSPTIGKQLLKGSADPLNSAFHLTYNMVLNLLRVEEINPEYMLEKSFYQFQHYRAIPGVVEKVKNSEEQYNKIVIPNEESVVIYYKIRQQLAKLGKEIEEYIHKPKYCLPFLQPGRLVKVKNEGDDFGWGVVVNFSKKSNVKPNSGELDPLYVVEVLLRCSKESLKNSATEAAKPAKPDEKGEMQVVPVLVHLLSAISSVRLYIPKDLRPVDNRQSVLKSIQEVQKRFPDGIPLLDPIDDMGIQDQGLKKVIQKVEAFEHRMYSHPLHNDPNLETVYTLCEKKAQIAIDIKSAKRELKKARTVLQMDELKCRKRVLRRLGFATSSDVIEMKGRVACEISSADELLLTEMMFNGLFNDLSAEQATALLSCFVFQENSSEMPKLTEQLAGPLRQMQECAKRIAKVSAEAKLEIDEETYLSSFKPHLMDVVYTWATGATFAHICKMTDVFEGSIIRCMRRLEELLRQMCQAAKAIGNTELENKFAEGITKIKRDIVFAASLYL
Procedure: as §1

| Sequence | EC50 (DIS3L2) | EC50 (LIN28B) | EC50 (SKIV2L2) |
| --- | --- | --- | --- |
| UAUUUAU | 376 nM | 1470 nM | 619 nM |
| CUGUCCU | 1180 nM | 2300 nM | 3470 nM |
| AAUAAA | 1340 nM | 2920 nM | 2880 nM |
